Assay results as given in paper PMC7652416.

Key:
[1] = target: ClpX^ΔN (residues 62–424) T199V mutant (E. coli) (UniProt P0A6H1)
[2] = target: ClpX^ΔN (residues 62–424) T199S mutant (E. coli) (UniProt P0A6H1)
[3] = target: E. coli ClpX^∆N (residues 62–424) (E. coli) (UniProt P0A6H1)

- KM of GFP-ssrA degradation by ClpX^∆N variant/ClpP (Michaelis-Menten fit) [1]: 89 µM
- KM of GFP-ssrA degradation by ClpX^∆N variant/ClpP (Michaelis-Menten fit) [2]: 6.3 µM
- KM of GFP-ssrA degradation by ClpX^∆N/ClpP (Michaelis-Menten fit) [3]: 1.3 µM
Substance: GFP-ssrA
